Data reported in patent US20230173098A1, “NANOPARTICLE COMPLEX FOR ORAL ADMINISTRATION AND USES THEREOF” (IUCF-HYU (Industry-University Cooperation Foundation …, priority 2021, published 2023).

Experiments:
[1] = PTT efficiency and photothermal heating profile under 532 nm PTT laser in vials; type: physicochemical
[2] = test system: small intestine endothelial cells (Caco-2); experiment: Cytotoxicity (EZ-Cytox, TEM morphology) in small intestine endothelial cells; type: cell-based, human; conditions: Caco-2, gold equivalent 10 μM, 24 hours
Procedure: (§1) Specifically, human umbilical vein endothelial cells (HUVECs) and small intestine endothelial cells (Caco-2) were seeded in 96-well plates at a seeding density of 5×10^3 cells for each well and incubated for 24 hours in a CO2 incubator. Next, AuNP, Ce6-AuNP and Lf-PEG-AuNP (gold equivalent concentration of 10 μM) were applied for 24 hours. Next, after washing with PBS buffer, wells were treated with a culture medium containing EZ-Cytox at 37° C. and 5% CO2 for 4 hours. In this case, the absorbance of the medium was measured with a micro-well plate reader at a wavelength of 450 nm, and the results are illustrated in FIGS. 16, 17A and 17B.

[3] = test system: human umbilical vein endothelial cells (HUVECs); experiment: Cytotoxicity (EZ-Cytox, TEM morphology) in vascular endothelial cells; type: cell-based; conditions: gold equivalent 10 μM, 24 hours
Procedure: as §1

[4] = 532 nm, 4 W/cm^2, 240 sec, gold equivalent 10 μM

B1: AuNP-Lf: PEGylated Lf-conjugated AuNP (conjugate, UniProt P02788 20-710, looked up)
Lactotransferrin: GRRRSVQWCAVSQPEATKCFQWQRNMRKVRGPPVSCIKRDSPIQCIQAIAENRADAVTLDGGFIYEAGLAPYKLRPVAAEVYGTERQPRTHYYAVAVVKKGGSFQLNELQGLKSCHTGLRRTAGWNVPIGTLRPFLNWTGPPEPIEAAVARFFSASCVPGADKGQFPNLCRLCAGTGENKCAFSSQEPYFSYSGAFKCLRDGAGDVAFIRESTVFEDLSDEAERDEYELLCPDNTRKPVDKFKDCHLARVPSHAVVARSVNGKEDAIWNLLRQAQEKFGKDKSPKFQLFGSPSGQKDLLFKDSAIGFSRVPPRIDSGLYLGSGYFTAIQNLRKSEEEVAARRARVVWCAVGEQELRKCNQWSGLSEGSVTCSSASTTEDCIALVLKGEADAMSLDGGYVYTAGKCGLVPVLAENYKSQQSSDPDPNCVDRPVEGYLAVAVVRRSDTSLTWNSVKGKKSCHTAVDRTAGWNIPMGLLFNQTGSCKFDEYFSQSCAPGSDPRSNLCALCIGDEQGENKCVPNSNERYYGYTGAFRCLAENAGDVAFVKDVTVLQNTDGNNNEAWAKDLKLADFALLCLDGKRKPVTEARSCHLAMAPNHAVVSRMDKVERLKQVLLHQQAKFGRNGSDCPDKFCLFQSETKNLLFNDNTECLARLHGKTTYEKYLGPQYVAGITNLKKCSTSPLLEACEFLRK
modifications: PEGylated gold nanoparticle conjugate
What does the source list for B1?
PTT efficiency / heat generation (in words) ([1]; 532 nm PTT laser, 4 W/cm^2): higher PTT efficiency; Maximum temperature (Tmax) [1, 4]: 56.3 ± 0.5 °C; PTT efficiency (Tmax − T0) [1, 4]: 29.6 ± 0.2 °C; cytotoxicity and morphological changes [2]: not detected; cytotoxicity and morphological changes [3]: not detected
